Positions count from the first letter of the chain named.
Legend:
RAW264.7 cells = assay: Release of TNF-α from RAW264.7 cells (ELISA); format: cell-based, murine; conditions: 0.5, 1 or 2 μg/ml, 8 hours
Protocol: In a RPMI1640 medium to which 10% heat inactivated FBS, 0.15% sodium bicarbonate, 100 units/ml penicillin, […] streptomycin and 2 mML-glutamine were added, murine macrophage-like RAW264.7 cells were proliferated in humidified air containing 5% CO2 at 37° C. Subsequently, cells were seeded on a 24-well or 96-well culture plate at a density of 5×10^5 cells/well, and cultured for 24 hours before use.
The RAW264.7 cells were seeded on a 24-well plate at a density of 2.5×10^5 cells/well, and incubated for 24 hours before treatment. Then, ssDNA, dsDNA, or several kinds of polypodnas diluted in 0.5 ml of Opti-MEM were added to the cells at a final concentration of 0.5, 1 or 2 μg/ml. The cells were incubated for 8 hours, the supernatant was recovered and stored at −70° C. before use. The concentrations of TNF-α and IL-6 in the supernatant were measured by Enzyme-Linked Immunosorbent Assay (ELISA) using an OptEIA™ set (Pharmingen, San Diego, Calif., USA).
The same experiment as in Example 22 was carried out except that each poolypodna preparation was prepared in the same manner as in Example 1 by using the sequences in Table 1. However, the added DNA was equal amount in each case.

[1] = tested on: mouse dendritic cell DC2.4; assay: Stimulation of dendritic cells by gel; format: cell-based; conditions: gel brought into contact with DC2.4
[2] = Evaluation of gelation at various DNA concentrations and NaCl concentrations; format: physicochemical; parameters: key: ◯: the mark “∘” is given to cases in which gelation was observed; X: the mark “x” is given to cases of a solution state (sol-state)
Protocol: […] The gel formation and the gel strength were measured by a gel strength analyzer (gel strength meter, Nakayamadenki Co., Ltd, Osaka).
Specifically, by changing the DNA concentrations of an aqueous solution of Tripodona (4-18-18) (X=4) (SEQ ID NOs.: 1, 2 and 3), Tetrapodna (4-18-18) (X=4) (SEQ ID NOs.: 2, 4, 5 and 6), Hexapodna (4-18-18) (X=4) (SEQ ID NOs.: 2, 3, 4, 7, 9 and 10) and Tetrapodna (8-16-16) (X=8) (SEQ ID NOs.: 22, 23, 24 and 25) as shown in the lines of Table 4, and by changing the NaCl concentration as shown in the rows of Table 4, whether or not a gel is formed at various DNA concentrations and NaCl concentrations was evaluated. The results are shown such that the mark “∘” is given to cases in which gelation was observed, and the mark “x” is given to cases of a solution state (sol-state).

[3] = Formation of hydrogel from nucleic acid units without ligase; format: physicochemical; conditions: without DNA ligase
Protocol: A NaCl solution was added to an ODN solution (polypodna) such that the final Na^+ concentration was 5 to 150 mM. The gel formation and the gel strength were measured by a gel strength analyzer (gel strength meter, Nakayamadenki Co., Ltd, Osaka).
A structure to be a hydrogel (a nucleic acid monomer and an estimated nucleic acid unit) in conditions at room temperature, at 5 mM to 150 mM sodium chloride concentration (150 mM is substantially physiological concentration), and not containing a DNA ligase was elucidated. […] For convenience, nucleic acid units estimated to be formed according to the number of nucleic acid monomers capable of constituting the nucleic acid unit were represented by xxxpodna (xxxpod-like structure forming nucleic acid, xxx is substituted by tri (3), tetra (4) and the like, according to the number of nucleic acid monomers capable of constituting the nucleic acid unit). In Table 2 described below, xxxpodna is an estimated nucleic acid unit, and each of xxx-Y-N is a nucleic acid monomer that can be a constituent element of the nucleic acid unit (xxxpodna) which is mentioned above thereof. When the descriptions of Ys are different from each other, different nucleic acid units can be formed. N denotes numbering of nucleic acid monomers constituting each of the estimated nucleic acid units.
Unlike (1-1) described above, gelation can be controlled by using a nucleic acid monomer including cohesive protruding ends which are not attached to themselves (that is, not palindrome sequence).

[4] = Percentage of remaining gels with the passage of time; format: physicochemical; conditions: DNA 0.5 mM, NaCl 150 mM
Protocol: Gels were formed by adjusting the NaCl concentration at 150 mM in an aqueous solution containing Tetrapodna (12-14-14) (SEQ ID NOs.: 30, 31, 32 and 33) at a DNA concentration of 0.1 mM, 0.25 mM or 0.5 mM, and the percentage of the remaining gels was measured with the passage of time. The results are shown in a graph in the left upper side of FIG. 17.
Gels were formed in conditions at a certain DNA concentration (0.5 mM) and a certain NaCl concentration (150 mM), and the percentage of the remaining gels was measured with the passage of time by using Tetrapodna (respectively, SEQ ID NOs.: 2, 4, 5 and 6, SEQ ID NOs.: 18, 19, 20 and 21, SEQ ID NOs.: 22, 23, 24 and 25, SEQ ID NOs.: 26, 27, 28 and 29, as well as SEQ ID NOs.: 30, 31, 32 and 33) having various lengths of the cohesive protruding end (4, 6, 8, 10 or 12 bases). The results are shown in a graph in the left lower side of FIG. 17. […] When 12 hours had passed, the percentage of the remaining gels became about 50%.
Gels were formed by variously changing the NaCl concentrations (5 mM, 50 mM, 100 mM or 150 mM) of an aqueous solution containing Tetrapodna (12-14-14) (SEQ ID NOs.: 30, 31, 32 and 33) at a DNA concentration of 0.5 mM, and the percentage of the remaining gels was measured with the passage of time. The results are shown in a graph in the right upper side of FIG. 17. […] At a low salt concentration (5 mM), almost all the formed gels became in a sol state when about 6 hours had passed. When the salt concentration was increased to 50 mM, solation tendency was weakened, a change from a gel into a sol occurred moderately (about 40% when 12 hours had passed).
The percentage of the remaining gels was measured with the passage of time in the same manner as in (8-3) except that Tetrapodna (4-18-18) (SEQ ID NOs.: 2, 4, 5 and 6) was used instead of Tetrapodna (12-14-14) (SEQ ID NOs.: 30, 31, 32 and 33). The results are shown in a graph in the right lower side of FIG. 17. […] In (8-3), Tetrapodna (12-14-14) (the length of the cohesive protruding end is 12 bases) was used. In (8-4), Tetrapodna (4-18-18) (the length of the cohesive protruding end is 4 bases) was used.

[5] = Temperature conditions for gel formation; format: physicochemical; conditions: NaCl 150 mM
Protocol: Furthermore, we investigated a possibility that temperature conditions are also involved in gelation. Tetrapodna (4-18-18) (SEQ ID NOs.: 2, 4, 5 and 6), Hexapodna (4-18-18) (SEQ ID NOs.: 2, 3, 4, 7, 9 and 10) and Tetrapodna (8-16-16) (SEQ ID NOs.: 22, 23, 24 and 25) were used to examine the temperature conditions for allowing a gel be present or a sol to be present by fixing the NaCl concentration at 150 mM and changing the DNA concentration variously.

[6] = Gel formation in a living body after subcutaneous injection of sol; format: in vivo; conditions: total DNA 2 mM, NaCl 5 mM, back of mouse
From the text: The hydrogel produced in Example 1 was able to be prepared in a sol state by appropriately adjusting conditions. Therefore, the hydrogel was able to be administered in a living body by injection. […] Thus, it was confirmed that a gel is formed in a living body only by preparing the hydrogel in accordance with the present invention in a sol state and administering the hydrogel to a living body.

[7] = Release of encapsulated OVA from gel; format: physicochemical; conditions: DNA 0.5 mM
Protocol: By controlling the nature and salt concentration of protruding ends of Tetrapodna, the change of the releasing rate of an encapsulated compound in a gel was examined. Specifically, Tetrapodna (4-18-18) (SEQ ID NOs.: 2, 4, 5 and 6) including a cohesive protruding end and Tetrapodna (4-18-18) (SEQ ID NOs.: 58, 59, 60 and 61) as a control including a non-cohesive protruding end were used. In an aqueous solution of Tetrapodna which had been prepared such that the DNA concentration was 0.5 mM, the NaCl concentration was adjusted to 5 mM or 150 mM. When the NaCl concentration was increased, egg albumin (OVA, concentration of 2.5 μg/μl) was added as an encapsulated substance to cause gelation, and then the percentage of OVA released from the gel with the passage of time was measured.

For “ssDNA36: single strand 36 mer ODN, SEQ ID No. 108 (DNA TCGCTGACGTTGCAGACATCACGTTGACGCTGTCGA; unmodified DNA) [reference compound]”, which TNF-α release (RAW264.7 cells) is on record?
The TNF-α release was “the TNF-α release hardly occurred”.

B1: Tetrapodna (4-18-18) which does not contain a CpG motif: four ODNs, SEQ ID NOs.: 14, 15, 16 and 17, not containing CpG (nucleic acid)
DNA 1: AGCTAGGCACCGTAGTCAATCGCCGATGTGTCCAAAGCCT
DNA 2: AGCTAGGCTTTGGACACATCGGTGCTCCTACCGTACTCCT
DNA 3: AGCTAGGAGTACGGTAGGAGCAGTTTCGGCATGTCCACCT
DNA 4: AGCTAGGTGGACATGCCGAAACCGATTGACTACGGTGCCT
modifications: DNA, all phosphodiester, methylation of C not given here
Which “immunological stimulation of dendritic cell” value [1] does the source give for B1 here?
Its value is “did not immunologically stimulate a mouse dendritic cell”.

B2: Tetrapodna(8-16-16): four ODNs, SEQ ID NOs.: 22, 23, 24 and 25, 8-base cohesive protruding end (nucleic acid)
DNA 1: ACGTACGTTAGCACGACATCAGCGTCTGACGCTTCGTCGA
DNA 2: ACGTACGTTCGACGAAGCGTCAGATCTCGTCAACGCTGCA
DNA 3: ACGTACGTTGCAGCGTTGACGAGACAGACGCTTGACGCTA
DNA 4: ACGTACGTTAGCGTCAAGCGTCTGCGCTGATGTCGTGCTA
modifications: unmodified DNA
For B2, which gelation ([2]; Na+ 2 mM, DNA 0.6 mM) is on record?
The gelation was “◯”.

And the gelation ([2]; Na+ 10 mM, DNA 0.5 mM)?
The gelation was “X”.

And the gelation ([2]; Na+ 20 mM, DNA 0.5 mM)?
Its gelation is “◯”.

And the gel formation [3]?
The gel formation was “gels can be prepared”.

What about the “initial percentage of gels” value [4] of the same molecule?
Its value is “about 100%”.

And the “percentage of the remaining gels with the passage of time” value [4]?
The value was “decreased with the passage of time only slightly”.

What about the “temperature at which gel is present” value ([5]; DNA concentration 0.5 mM) of the same molecule?
The value was “gel at 55 °C”.

What about the “temperature at which sol is present” value ([5]; DNA concentration 0.5 mM) of the same molecule?
Its value is “sol at 75 °C”.

B3: control Tetrapodna: Tetrapodna (4-18-18), SEQ ID NOs.: 58, 59, 60 and 61, non-cohesive protruding end, control (nucleic acid)
DNA 1: AGTCTCGCTGACGTTGCAGACATCACGTTGACGCTGTCGA
DNA 2: AGTCTCGACAGCGTCAACGTGAAACGTGAAGCGTCTGCGA
DNA 3: AGTCTCGCAGACGCTTCACGTTGCAGACAGACGTTGACGA
DNA 4: AGTCTCGTCAACGTCTGTCTGCTGTCTGCAACGTCAGCGA
modifications: unmodified DNA
Which “gel formation in a living body” value [6] does the source give for B3 here?
The value was “a gel was not formed in a living body”.

What about the gelation ([7]; NaCl 5 mM or 150 mM) of the same molecule?
The gelation was “Gelation hardly found”.

What about the “percentage of OVA released from the first” value ([7]; OVA 2.5 μg/μl) of the same molecule?
Its value is about 100%.

B4: Hexapodna(4-18-18): six ODNs, SEQ ID NOs.: 2, 3, 4, 7, 9 and 10, 4-base cohesive protruding end (nucleic acid)
DNA 1: B3 DNA 2 with G2C, T3G, C4T
DNA 2: ACGTTCGCAGACGCTTCACGTTGAGCACAGACGTTGACGA
DNA 3: B3 DNA 1 with G2C, T3G, C4T
DNA 4: ACGTTCGTCAACGTCTGTGCTCGCAGCGTCTTAACGTCGA
DNA 5: ACGTTCGACGTTAAGACGCTGCAGACGTTCAGGACTACGA
DNA 6: ACGTTCGTAGTCCTGAACGTCTTGTCTGCAACGTCAGCGA
modifications: unmodified DNA
What does the source list for B4?
gelation ([2]; Na+ 2 mM, DNA 0.8 mM): ◯; gelation ([2]; Na+ 20 mM, DNA 0.7 mM): X; gelation ([2]; Na+ 50 mM, DNA 0.5 mM): X; gelation ([2]; Na+ 50 mM, DNA 0.6 mM): X; gelation ([2]; Na+ 50 mM, DNA 0.7 mM): ◯; gelation ([2]; Na+ 100 mM, DNA 0.4 mM): X; gelation ([2]; Na+ 100 mM, DNA 0.5 mM): ◯; gelation ([2]; Na+ 100 mM, DNA 0.6 mM): ◯; gelation ([2]; Na+ 150 mM, DNA 0.3 mM): X; gelation ([2]; Na+ 150 mM, DNA 0.4 mM): ◯; gel formation [3]: gels can be prepared; temperature at which gel is present ([5]; DNA concentration 1.0 mM): gel at 65 °C; temperature at which sol is present ([5]; DNA concentration 1.0 mM): sol at 75 °C; temperature at which gel is present ([5]; DNA concentration 0.3-0.8 mM): gel at 55 °C; temperature at which sol is present ([5]; DNA concentration 0.3-0.8 mM): sol at 65 °C
